Test results taken from US20200353078A1 (AstraZeneca / MedImmune, published 2020).
Where two headings read alike, the source gives them in different places. Values belong to the binder of their own block, whether it stands above or below them.

B1: Human IL-33 Flag®His (ligand)
chain: SITGISPITEYLASLSTYNDQSITFALEDESYEIYVEDLKKDEKKDKVLLSYYESQHPSNESGDGVDGKMLMVTLSPTKDFWLHANNKEHSVELHKCEKPLPDQAFFVLHNMHSNCVSFECKTDPGVFIGVKDNHLALIKVDSSENLCTENILFKLSETNPAFLYKVVGAADYKDDDDKAAHHHHHHHHHH
notes: Mature IL-33 with C-terminal FLAG 10xHis tag, from E. coli; biotinylated via free cysteines where used biotinylated; also called Mature Human IL-33_FH; human IL-33 FH
B2: 33_640087-7B IgG1 (antibody, V domains shown)
VH: EVQLLESGGGLVQPGGSLRLSCAASGFTFSSYAMSWVRQAPGKGLEWVSGISAIDQSTYYADSVKGRFTISRDNSKNTLYLQMNSLRAEDTAVYYCARQKFMQLWGGGLRYPFGYWGQGTMVTVSS
VL: SYVLTQPPSVSVSPGQTASITCSGEGMGDKYAAWYQQKPGQSPVLVIYRDTKRPSGIPERFSGSNSGNTATLTISGTQAMDEADYYCGVIQDNTGVFGGGTKLTVL
notes: IgG1

Columns and labels:
33v20064 IgG1 [1] = biological target: T1, 33v20064 IgG1; assay: HTRF: unlabelled test protein competes with biotinylated human IL33-01 for DyLight labelled 33v20064 IgG
T1 construct: IgG1; also called ZZ1EBX-E05
Procedure: (§1) Human, cyno and mouse IL-33 FLAG® His (described in Example 1) were tested for inhibition of human IL-33 binding to DyLight labelled 33v20064 by adding 5 microlitres of each dilution of IL-33 sample to a 384 well low volume assay plate (Costar, 3673). […] This was followed by the addition of 2.5 microlitres of a solution containing 1.2 nM biotinylated human IL-33-01 combined with 1.5 nM streptavidin cryptate detection (Cisbio International, 610SAKLB). All dilutions were performed in assay buffer containing 0.8 M potassium fluoride (VWR, 26820.236) and 0.1% bovine serum albumin (BSA, PAA, K05-013) in Dulbeccos PBS (Invitrogen, 14190185). Assay plates were incubated for 1 hour at room temperature and time resolved fluorescence was read at 620 nm and 665 nm emission wavelengths using an EnVision plate reader (Perkin Elmer). Data were analysed by calculating the 665/620 nm ratio followed by the % Delta F values for each sample. The 665/620 nm ratio was used to correct for sample interference using Equation 1. The % Delta F for each sample was then calculated using Equation 2. The negative control (non-specific binding) was defined by replacing biotinylated human IL-33 combined with streptavidin cryptate detection with streptavidin cryptate detection only. […] IC₅₀ values were determined using GraphPad Prism software by curve fitting using a four-parameter logistic equation (Equation 4).

33v20064 IgG1 [2] = biological target: T1, 33v20064 IgG1; assay: as above; remark: listed apart in the source
Procedure: as §1

33_640087-7B IgG1 = biological target: B2; assay: HTRF: unlabelled test protein competes with biotinylated human IL33-01 for DyLight650 labelled 33_640087-7B IgG
Procedure: Human, cyno and mouse IL-33 FLAG® His (described in Example 1 and Table 21), Human IL-1 alpha and IL-1 beta (R&D Systems) (Table 21) or rat IL-33 (GenScript) were tested for inhibition of human IL-33 binding to DyLight650 labelled 33_640087-7B or DyLight650 labelled 33_640237-2B by adding 5 microlitres of each dilution of sample to a 384 well low volume assay plate (Costar, 3673). […] This was followed by the addition of 2.5 microlitres of a solution containing 0.12 nM biotinylated human IL-33-01 combined with 0.75 nM streptavidin cryptate detection (Cisbio International, 610SAKLB). All dilutions were performed in assay buffer containing 0.8 M potassium fluoride (VWR, 26820.236) and 0.1% bovine serum albumin (BSA, PAA, K05-013) in Dulbeccos PBS (Invitrogen, 14190185). Assay plates were incubated for 4 hours at room temperature followed by 18 hours at 4 degrees Celsius and time resolved fluorescence was read at 620 nm and 665 nm emission wavelengths using an EnVision plate reader (Perkin Elmer). Data were analysed by calculating the 665/620 nm ratio followed by the % Delta F values for each sample. The 665/620 nm ratio was used to correct for sample interference using Equation 1. The % Delta F for each sample was then calculated using Equation 2. […] IC₅₀ values were determined using GraphPad Prism software by curve fitting using a four-parameter logistic equation (Equation 4).

33_640237-2B IgG1 = biological target: T2, 33_640237-2B IgG1; assay: HTRF: unlabelled test protein competes with biotinylated human IL33-01 for DyLight650 labelled 33_640237-2B IgG
T2 construct: IgG1
Procedure: Human, cyno and mouse IL-33 FLAG® His (described in Example 1 and Table 21), Human IL-1 alpha and IL-1 beta (R&D Systems) (Table 21) or rat IL-33 (GenScript) were tested for inhibition of human IL-33 binding to DyLight650 labelled 33_640087-7B or DyLight650 labelled 33_640237-2B by adding 5 microlitres of each dilution of sample to a 384 well low volume assay plate (Costar, 3673). […] This was followed by the addition of 2.5 microlitres of a solution containing 0.12 nM biotinylated human IL-33-01 combined with 0.75 nM streptavidin cryptate detection (Cisbio International, 610SAKLB). All dilutions were performed in assay buffer containing 0.8 M potassium fluoride (VWR, 26820.236) and 0.1% bovine serum albumin (BSA, PAA, K05-013) in Dulbeccos PBS (Invitrogen, 14190185). Assay plates were incubated for 4 hours at room temperature followed by 18 hours at 4 degrees Celsius and time resolved fluorescence was read at 620 nm and 665 nm emission wavelengths using an EnVision plate reader (Perkin Elmer). Data were analysed by calculating the 665/620 nm ratio followed by the % Delta F values for each sample. The 665/620 nm ratio was used to correct for sample interference using Equation 1. The % Delta F for each sample was then calculated using Equation 2. The negative control (non-specific binding) was defined by replacing biotinylated human IL-33 combined with streptavidin cryptate detection with streptavidin cryptate detection only. The % Delta F values were subsequently used to calculate % specific binding as described in Equation 3. IC₅₀ values were determined using GraphPad Prism software by curve fitting using a four-parameter logistic equation (Equation 4).

Endogenous human IL-33 = biological target: T3, Endogenous human IL-33 (human, UniProt O95760 1-270, limits assumed); assay: cell-based or functional assay
T3 sequence (looked up): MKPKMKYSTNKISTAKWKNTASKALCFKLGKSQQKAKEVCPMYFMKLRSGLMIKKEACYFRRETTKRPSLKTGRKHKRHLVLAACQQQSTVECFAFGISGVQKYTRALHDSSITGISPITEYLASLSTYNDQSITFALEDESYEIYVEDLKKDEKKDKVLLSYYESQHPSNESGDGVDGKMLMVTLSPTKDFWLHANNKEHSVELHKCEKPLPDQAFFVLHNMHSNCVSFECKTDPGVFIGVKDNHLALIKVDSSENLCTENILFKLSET

His10/Avi Human IL33-01 [3] = biological target: T4, His10/Avi Human IL33-01 (human); assay: cell-based or functional assay
T4 chain: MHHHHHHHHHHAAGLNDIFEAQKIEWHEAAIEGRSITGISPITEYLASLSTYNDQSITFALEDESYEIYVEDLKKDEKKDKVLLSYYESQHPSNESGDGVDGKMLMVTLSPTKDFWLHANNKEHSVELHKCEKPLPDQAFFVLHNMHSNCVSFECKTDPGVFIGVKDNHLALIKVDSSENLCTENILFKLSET

[4] = biological target: T5, Recombinant human IL-33 (construct not named in the example) (human, UniProt O95760 112-270, limits assumed); assay: KinExA 3200, IgG at 5 pM and 500 fM equilibrated with IL-33, 25 C
T5 construct: also called Recombinant, enzymatically biotinylated human IL-33 (produced in-house); IL-33 (200 nM)
T5 sequence (looked up): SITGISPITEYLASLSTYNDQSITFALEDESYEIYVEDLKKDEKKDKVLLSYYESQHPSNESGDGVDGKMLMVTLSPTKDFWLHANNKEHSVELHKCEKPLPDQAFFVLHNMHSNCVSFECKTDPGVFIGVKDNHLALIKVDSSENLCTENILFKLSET
Procedure: The affinity of the antibody 33_640087-7B was measured by kinetic exclusion assays performed on the KinExA 3200. The sampling beads were prepared by mixing 200 mg of dry UltraLink Biosupport Azlactone beads with 110 μg of IL-33 (as mentioned previously) in 2.5 ml of 50 mM sodium hydrogen bicarbonate pH 8.4 at room temperature for 2 hours with constant agitation. The beads were rinsed and blocked with 10 mg/ml BSA in 1M Tris pH 8.7. Prior to use, the beads were resuspended into D-PBS, 0.02% sodium azide. 33_640087-7B/IL-33 equilibrium mixtures were prepared in sample buffer composed of 1 mg/ml BSA, 0.02% sodium azide in DPBS (Dulbecco's PBS). […] The fluorescent secondary detection reagent was Alexa Fluor 647 goat anti-human-Fc diluted in 1 mg/ml BSA, 0.02% sodium azide, 0.1% Tween 20 in DPBS. The samples were run on the KinExA whilst housed in a temperature controlled cabinet set at 25° C. The data was analysed using the KinExA Pro software version 4.1.11.

His10/Avi Human IL33-01 [5] = biological target: T4, His10/Avi Human IL33-01; assay: HTRF competition: purified IgG against FLAG-His human ST2 for biotinylated IL33-01, overnight incubation
[6] = biological target: T6, Human IL-33 (Axxora/Adipogen AG-40B-0038) (human, UniProt O95760 112-270, limits assumed); assay: cell-based or functional assay
T6 sequence (looked up): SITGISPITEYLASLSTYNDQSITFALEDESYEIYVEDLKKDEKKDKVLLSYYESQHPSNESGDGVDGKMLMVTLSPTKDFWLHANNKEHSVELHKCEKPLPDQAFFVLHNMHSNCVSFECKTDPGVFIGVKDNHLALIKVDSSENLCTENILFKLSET

Human IL-33 Flag®His [7] = biological target: B1; assay: cell-based or functional assay
Human IL-33 Flag®His [8] = biological target: B1; assay: HTRF competition, IgG titrated against biotinylated human ST2-Fc
Method in brief: (§2)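 Antibody dilution series competed with biotinylated human ST2-Fc (added from a 4 nM mix with streptavidin-XL665) for IL-33 (added from a 1.2 nM mix with anti-FLAG cryptate). Buffer was DPBS with 0.8 M KF and 0.1% BSA. Incubation ran 2 h at RT then 16 h at 4 °C, with TRF read at 620/665 nm.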

[9] = biological target: T7, Cynomolgus IL-33 Flag®His (cynomolgus monkey); assay: as above
T7 construct: C-terminal FLAG 10xHis tag, E. coli; also called Mature Cynomolugus IL-33; cyno IL-33 FH
T7 chain: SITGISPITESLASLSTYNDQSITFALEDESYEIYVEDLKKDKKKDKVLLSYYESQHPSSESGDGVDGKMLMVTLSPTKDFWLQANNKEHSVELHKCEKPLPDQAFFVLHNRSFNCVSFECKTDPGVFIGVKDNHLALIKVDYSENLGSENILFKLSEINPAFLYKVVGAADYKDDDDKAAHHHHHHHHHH
Method in brief: as §2

Human IL-33 Flag®His [10] = biological target: B1; assay: SPR BIAcore 2000, IgG captured on Protein G', IL-33 as analyte, 1:1 Langmuir
Procedure: (§3) The binding affinity of purified IgG samples of exemplary binding members to human and cynomolgus IL-33 was determined by surface plasmon resonance using BIAcore 2000 biosensor (BIAcore AB) essentially as described by Karlsson et al., J Immunol Methods 145(1-2):229-40 (1991). In brief, Protein G′ (Sigma Aldrich, P4689) was covalently coupled to the surface of a CM5 sensor chip using standard amine coupling reagents according to manufacturer's instructions (BIAcore). The protein G′ surface was used to capture purified anti-IL-33 antibodies via the Fc domain to provide a surface density of approximately 290 RU per cycle. Human or cynomolgus IL-33 prepared in HBS-EP buffer (BIAcore AB), at a range of concentrations, between 600 nM and 18.75 nM, were passed over the sensor chip surface. The surface was regenerated using two 10 mM Glycine washes of pH 1.7 and pH 1.5 between each injection of antibody. The resulting sensorgrams were evaluated using BIA evaluation 3.1 software and fitted to a 1:1 Langmuir binding model, to provide relative binding data. The binding results (KD, Ka, and Kd) for antibodies IL330002 and IL330004 binding to human or cynomolgus IL-33 are shown in Table 8.

[11] = biological target: T7, Cynomolgus IL-33 Flag®His; assay: as above
Procedure: as §3

His10/Avi Human IL33-01 [12] = biological target: T4, His10/Avi Human IL33-01; assay: HTRF competition: purified IgG against FLAG-His human ST2 for biotinylated IL33-01, 1 hour incubation

T1 sequence (VL, as listed by the source): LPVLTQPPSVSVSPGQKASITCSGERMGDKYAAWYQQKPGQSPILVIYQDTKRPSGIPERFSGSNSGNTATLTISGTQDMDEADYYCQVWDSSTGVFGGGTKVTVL

Binder: B1
IC50 (read off the curve) (33v20064 IgG1 [1]): ~200 nM | IC50 (read off the curve) (33v20064 IgG1 [2]): ~100 nM | IC50 (read off the curve) (33_640087-7B IgG1): ~0.7 nM | IC50 (read off the curve) (33_640237-2B IgG1): ~1 nM

Binder: B2
IC50, Huvec IL-8 release stimulated by human lung lysate (Endogenous human IL-33): 0.013 nM | IC50 (nM) vs. His Avi IL-33, Huvec IL-8 assay (His10/Avi Human IL33-01 [3]): 0.046 nM | Kd [4]: 0.03 pM | IC50 (read off the curve) (His10/Avi Human IL33-01 [5]): ~0.4 nM

IC50, Huvec p65/RelA NFκB nuclear translocation [6]: 12 nM | IC50, human ST2 transfected HeLa NFkB luciferase reporter assay (Human IL-33 Flag®His [7]): 23 nM | IC50 (Human IL-33 Flag®His [8]): 9 nM | IC50 [9]: 170 nM | Kd (Human IL-33 Flag®His [10]): 6 nM | koff (Human IL-33 Flag®His [10]): 0.0011 s⁻¹ | kon (Human IL-33 Flag®His [10]): 196000 M⁻¹ s⁻¹ | Kd [11]: 365 nM | koff [11]: 0.00458 s⁻¹ | kon [11]: 12500 M⁻¹ s⁻¹ | IC50 (read off the curve) (His10/Avi Human IL33-01 [12]): ~1 nM
B3: IL330004 IgG1 (antibody, V domains shown)
VH: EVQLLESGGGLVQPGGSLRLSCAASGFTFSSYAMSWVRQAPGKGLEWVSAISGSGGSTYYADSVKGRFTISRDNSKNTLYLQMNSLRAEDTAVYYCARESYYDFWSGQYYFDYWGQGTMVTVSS
VL: SYELTQPPSVSVSPGQTASISCSGDKLGDKFASWYQQKPGQSPVLIIYQDRKRPSGIPERFSGSNSGNTATLTISGTQTTDEADYYCQAWDGSLYVFGTGTKLTVL
notes: Human IgG1, lambda constant
